Source: patent publication US20240400677A1
Changes are numbered by the printed parent chain.

B1: Antibody 31 (scFv, V domains shown)
VH: QVQLVQSGAEVKKPGASVKVSCKASGGTFRSYAISWVRQAPGQGLEWMGWMNPNSGNTGYAQKFQGRVTMTRDTSTSTVYMELSSLRSEDTAVYYCARESVLKGGMDVWGQGTTVTVSS
VL: DIVMTQSPDSLAVSLGERATINCRSSQSLFHSSTNANNLAWYQQKPGQPPKLLIYWASTRESGVPDRFSGSGSGTDFTLTISSLQAEDVAVYYCQQYYITPLTFGQGTRLEIK
B2: Antibody 28 (scFv, V domains shown)
VH: QVQLVQSGAEVKKPGASVKVSCKASGYTFTSYNIHWVRQAPGQGLEWMGWISAYNGNTNYAQKLQGRVTMTRDTSTSTVYMELSSLRSEDTAVYYCALDGGQLGVAFDIWGQGTMVTVSS
VL: DIQMTQSPSSLSASVGDRVTITCRASQGISNWLAWYQQKPGKAPKLLIYDASNLDAGVPSRFSGSGSGTDFTLTISSLQPEDFATYYCQQANSLPLTFGGGTKVEIK
B3: Antibody 37 (scFv, V domains shown)
VH: QVQLVQSGAEVKKPGASVKVSCKASGYTLNNYDINWVRQAPGQGLEWMGWISGYNGNTNYAQKLQGRVTMTRDTSTSTVYMELSSLRSEDTAVYYCARVGSSWEENDQWGQGTLVTVSS
VL: B2 VL with G28S, N31R, D50A, N53S, D55E, A56S, A91T, N92H, L94F
B4: Antibody 11 (scFv, V domains shown)
VH: QVQLVQSGAEVKKPGASVKVSCKASGYTFTSYDINWVRQAPGQGLEWMGWMNPNSGNTGYAQKFQGRVTMTRDTSTSTVYMELSSLRSEDTAVYYCAKGAVAGTYYYYGMDVWGQGTTVTVSS
VL: B2 VL with G28T, S30N, W32Y, A34N, D55E, A56T, L94F, G100Q

Each binder was assayed against human SIRPα V1-His monomer protein (human) (UniProt P78324) (assay: BLI Octet, V5-scFv PPE captured, SIRP-His 500 nM).
Sequence of human SIRPα V1-His monomer protein (human) (P78324 31-370): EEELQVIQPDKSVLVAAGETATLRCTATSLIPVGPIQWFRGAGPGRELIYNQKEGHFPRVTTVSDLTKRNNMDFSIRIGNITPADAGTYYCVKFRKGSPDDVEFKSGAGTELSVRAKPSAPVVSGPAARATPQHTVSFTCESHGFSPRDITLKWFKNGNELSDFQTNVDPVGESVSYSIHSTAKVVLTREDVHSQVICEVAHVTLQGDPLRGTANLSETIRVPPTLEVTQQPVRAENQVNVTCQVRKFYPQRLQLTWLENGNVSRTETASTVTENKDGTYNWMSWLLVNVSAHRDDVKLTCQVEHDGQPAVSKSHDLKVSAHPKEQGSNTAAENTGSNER

kdis, > 0.01 s⁻¹:
B1
B2
B3
B4
